Measurements published in the MegaScale stability set (Tsuboyama et al. 2023).

B1: 1ZHC (parent)
chain: HEFRDEISVLKANNPHFDKIFEKHNQLDDDIKTAEQQNASDAEVSHMKKQKLKLKDEIHSMIIEYREK

Variants of: B1
Experiment: folding stability dG (cDNA display proteolysis); higher = more stable
Details: PBS, room temperature

| Variant | folding stability dG [kcal/mol] |
| --- | --- |
| K23I | 0.915 |
| K23L | 1.55 |
| K23M | 1.58 |
| K23N | 0.111 |
| K23Q | 1.33 |
| K23R | 0.933 |
| K23S | 0.339 |
| K23T | 0.355 |
| K23V | 0.152 |
| K23W | 1.28 |
| K23Y | 1.02 |
| H24A | 0.782 |
| H24C | 1.86 |
| H24F | 2.06 |
| H24I | 1.22 |
| H24K | -0.319 |
| H24L | 1.68 |
| H24M | 1.74 |
| H24Q | 0.285 |
| H24R | -0.124 |
| H24S | 0.609 |
| H24T | -0.497 |
| H24V | 0.939 |
| H24W | 1.64 |

| Variant | folding stability dG [kcal/mol] |
| --- | --- |
| H24Y | 2.15 |
| N25A | 1.03 |
| N25C | 1.41 |
| N25D | 0.646 |
| N25E | 0.44 |
| N25F | 0.65 |
| N25G | -0.067 |
| N25H | 0.533 |
| N25I | 0.737 |
| N25K | 1.42 |
| N25L | 1.14 |
| N25M | 0.989 |
| N25Q | 1.29 |
| N25R | 1.59 |
| N25S | 0.766 |
| N25T | 0.573 |
| N25V | 0.471 |
| N25W | 0.642 |
| N25Y | 0.277 |
| Q26A | 0.273 |
| Q26C | -0.127 |
| Q26D | 0.206 |
| Q26E | -0.511 |
| Q26F | -0.21 |

| Variant | folding stability dG [kcal/mol] |
| --- | --- |
| Q26H | -0.231 |
| Q26I | -0.025 |
| Q26K | 1.07 |
| Q26L | 0.746 |
| Q26M | -0.061 |
| Q26N | 0.184 |
| Q26R | 1.28 |
| Q26S | 0.329 |
| Q26T | 0.215 |
| Q26V | -0.13 |
| Q26W | -0.614 |
| Q26Y | -0.902 |
| L27C | 0.277 |
| L27F | 0.005 |
| L27I | 0.13 |
| L27M | 0.198 |
| L27V | 0.331 |
| L27W | -0.576 |
| L27Y | -0.311 |
| D28A | 1.37 |
| D28E | 1.18 |
| D28F | 0.297 |
| D28G | 0.786 |
| D28H | 0.757 |

| Variant | folding stability dG [kcal/mol] |
| --- | --- |
| D28I | 1.13 |
| D28K | 0.414 |
| D28L | 0.945 |
| D28M | 1.21 |
| D28Q | 0.794 |
| D28R | 0.988 |
| D28S | 0.804 |
| D28T | 1.48 |
| D28V | 1.29 |
| D28W | 0.731 |
| D28Y | 0.56 |
| D29A | 1.44 |
| D29C | 1.17 |
| D29E | 1.24 |
| D29F | 1.38 |
| D29G | 0.771 |
| D29H | 1.51 |
| D29I | 1.44 |
| D29K | 1.79 |
| D29L | 1.56 |
| D29M | 1.5 |
| D29N | 1.49 |
| D29Q | 1.5 |
| D29R | 1.67 |

| Variant | folding stability dG [kcal/mol] |
| --- | --- |
| D29S | 1.2 |
| D29T | 0.539 |
| D29V | 1.24 |
| D29W | 1.26 |
| D29Y | 1.25 |
| D30A | 1.4 |
| D30C | 1.21 |
| D30E | 0.784 |
| D30F | 0.817 |
| D30G | -0.099 |
| D30I | 0.712 |
| D30K | 1 |
| D30L | 1.27 |
| D30M | 1.66 |
| D30N | 0.359 |
| D30Q | 1.25 |
| D30R | 1.07 |
| D30S | 0.524 |
| D30T | 0.396 |
| D30V | -0.277 |
| D30W | 1.09 |
| D30Y | 0.857 |
| I31C | -0.874 |
| I31D | -0.93 |

| Variant | folding stability dG [kcal/mol] |
| --- | --- |
| I31H | -0.743 |
| I31L | -0.093 |
| I31N | -0.499 |
| I31V | -0.196 |
| K32A | 0.452 |
| K32C | 0.133 |
| K32D | -0.682 |
| K32E | 0.008 |
| K32F | 0.278 |
| K32H | 0.348 |
| K32I | 0.135 |
| K32L | 0.566 |
| K32M | 0.333 |
| K32N | 0.323 |
| K32Q | 0.87 |
| K32R | 1.18 |
| K32S | 0.171 |
| K32T | 0.187 |
| K32V | 0.251 |
| K32W | 0.34 |
| K32Y | 0.157 |
| T33A | 1.14 |
| T33C | 0.988 |
| T33D | 0.706 |

| Variant | folding stability dG [kcal/mol] |
| --- | --- |
| T33E | 0.363 |
| T33F | 1 |
| T33G | -0.016 |
| T33H | 0.96 |
| T33I | 0.854 |
| T33K | 1.43 |
| T33L | 1.14 |
| T33M | 1.26 |
| T33N | 1.07 |
| T33Q | 1.02 |
| T33R | 1.55 |
| T33S | 0.866 |
| T33V | 1.3 |
| T33W | 0.943 |
| T33Y | 0.829 |
| A34C | 0.429 |
| A34F | 0.526 |
| A34H | -0.482 |
| A34I | -0.296 |
| A34K | 0.579 |
| A34L | 1.21 |
| A34M | 0.859 |
| A34Q | -0.306 |
| A34R | 0.663 |

| Variant | folding stability dG [kcal/mol] |
| --- | --- |
| A34V | -0.863 |
| A34W | 0.215 |
| A34Y | 0.389 |
| E35A | 0.281 |
| E35C | 0.531 |
| E35F | 0.495 |
| E35G | -0.433 |
| E35H | -0.572 |
| E35I | 1.68 |
| E35K | 0.972 |
| E35L | 1.67 |
| E35M | 1.49 |
| E35N | 0.058 |
| E35Q | 1.17 |
| E35R | 0.348 |
| E35S | 0.162 |
| E35T | 0.201 |
| E35V | 0.864 |
| E35W | 0.403 |
| E35Y | 0.895 |
| Q36A | 1.01 |
| Q36C | 0.694 |
| Q36D | 0.576 |
| Q36E | 0.904 |

| Variant | folding stability dG [kcal/mol] |
| --- | --- |
| Q36F | 0.822 |
| Q36G | 0.883 |
| Q36H | -0.003 |
| Q36I | 0.263 |
| Q36K | 0.963 |
| Q36L | 1.02 |
| Q36M | 1.31 |
| Q36N | 0.652 |
| Q36R | 1.25 |
| Q36S | 1.17 |
| Q36T | 0.782 |
| Q36V | 0.511 |
| Q36W | 0.281 |
| Q36Y | 0.632 |
| Q37A | 1.07 |
| Q37C | 0.94 |
| Q37D | 0.411 |
| Q37E | 0.422 |
| Q37F | 0.569 |
| Q37G | 0.943 |
| Q37H | 1.05 |
| Q37I | 0.631 |
| Q37K | 0.764 |
| Q37L | 0.867 |

| Variant | folding stability dG [kcal/mol] |
| --- | --- |
| Q37M | 0.926 |
| Q37N | 1.38 |
| Q37R | 1.51 |
| Q37S | 1 |
| Q37T | 0.882 |
| Q37V | 0.447 |
| Q37W | 0.426 |
| Q37Y | 0.718 |
| N38A | 0.467 |
| N38C | 0.923 |
| N38D | 0.358 |
| N38E | -0.059 |
| N38F | 0.925 |
| N38G | 1.55 |
| N38H | 0.624 |
| N38I | -0.331 |
| N38K | 0.548 |
| N38L | 0.276 |
| N38M | 0.449 |
| N38P | -0.007 |
| N38Q | -0.49 |
| N38R | 0.634 |
| N38S | 0.358 |
| N38T | 0.312 |

| Variant | folding stability dG [kcal/mol] |
| --- | --- |
| N38V | -0.172 |
| N38W | -0.188 |
| N38Y | 0.303 |
| A39C | 0.897 |
| A39D | 0.034 |
| A39E | 0.246 |
| A39F | 1.07 |
| A39G | 0.787 |
| A39H | 0.973 |
| A39I | 0.873 |
| A39K | 1.1 |
| A39L | 1.36 |
| A39M | 0.936 |
| A39N | 0.078 |
| A39P | 0.131 |
| A39Q | 0.259 |
| A39R | 1.33 |
| A39S | 0.359 |
| A39T | 0.09 |
| A39V | 0.986 |
| A39W | 1.3 |
| A39Y | 0.83 |
| S40A | 0.255 |
| S40C | 0.351 |

| Variant | folding stability dG [kcal/mol] |
| --- | --- |
| S40D | 0.774 |
| S40E | 0.469 |
| S40F | 0.13 |
| S40G | 0.619 |
| S40H | 0.256 |
| S40I | -0.234 |
| S40K | 0.104 |
| S40L | 0.393 |
| S40M | -0.003 |
| S40N | 1.12 |
| S40P | 0.855 |
| S40Q | 0.039 |
| S40R | 0.251 |
| S40T | -0.074 |
| S40V | -0.512 |
| S40W | -0.874 |
| S40Y | -0.236 |
| D41A | 1.23 |
| D41C | 0.771 |
| D41E | 1.33 |
| D41F | 0.919 |
| D41G | 0.41 |
| D41H | 0.871 |
| D41I | 0.951 |

| Variant | folding stability dG [kcal/mol] |
| --- | --- |
| D41K | 0.873 |
| D41L | 0.874 |
| D41M | 0.722 |
| D41N | 0.532 |
| D41P | 1.28 |
| D41Q | 0.972 |
| D41R | 0.76 |
| D41S | 1.03 |
| D41T | 0.736 |
| D41V | 0.775 |
| D41W | 0.916 |
| D41Y | 0.879 |
| A42C | 0.68 |
| A42D | 0.989 |
| A42E | 1.26 |
| A42F | 0.065 |
| A42G | 0.074 |
| A42H | 0.433 |
| A42I | 0.572 |
| A42K | 0.633 |
| A42L | 0.464 |
| A42M | 0.539 |
| A42N | 0.432 |
| A42P | 0.446 |

| Variant | folding stability dG [kcal/mol] |
| --- | --- |
| A42Q | 0.718 |
| A42R | -0.079 |
| A42S | 0.359 |
| A42T | 0.44 |
| A42V | 0.662 |
| A42W | 0.189 |
| A42Y | 0.635 |
| E43A | 0.759 |
| E43C | 1.01 |
| E43D | 1.26 |
| E43F | 1.07 |
| E43G | -0.301 |
| E43H | 0.621 |
| E43I | 1.27 |
| E43K | 1.24 |
| E43L | 1.14 |
| E43M | 1.12 |
| E43N | 0.299 |
| E43Q | 0.669 |
| E43R | 1.08 |
| E43S | 0.44 |
| E43T | 0.763 |
